From the Immune Epitope Database (IEDB) come the findings set out here.

In one experiment the target is HLA-A*30:01. The experiment in a line: IEDB peptide-MHC binding, purified MHC/competitive/radioactivity; filed as Kd, often an IC50 or EC50 that approximates it; ≥ and ≤ were set here for values at or beyond the usual limits of such assays.
The next experiment concerns the target HLA-A*02:02. The description is as above.
For a further experiment, the target named is HLA-A*02:03. The description is as above.
The target in another experiment is HLA-A*02:06. The experiment is described as above.
The target of the next experiment is HLA-A*30:02. The experiment is described as above.
A further experiment has as its target HLA-A*26:01. The description is as above.
A further experiment deals with HLA-A*69:01. Briefly: IEDB peptide-MHC binding, purified MHC/direct/fluorescence; filed as Kd, often an IC50 or EC50 that approximates it; ≥ and ≤ were set here for values at or beyond the usual limits of such assays. The following applies: source organism: West Nile virus.
The target of a further experiment is HLA-A*01:01. The experiment in a line: IEDB peptide-MHC binding, purified MHC/competitive/radioactivity; filed as Kd, often an IC50 or EC50 that approximates it; ≥ and ≤ were set here for values at or beyond the usual limits of such assays. As to conditions: source organism: Dengue virus 1 Brazil/97-11/1997.
Another experiment has as its target HLA-A*03:01. Briefly: IEDB peptide-MHC binding, purified MHC/direct/fluorescence; filed as Kd, often an IC50 or EC50 that approximates it; ≥ and ≤ were set here for values at or beyond the usual limits of such assays. As to conditions: source organism: Entamoeba histolytica HM-1:IMSS.
Setting [1] is: source organism: Vaccinia virus WR.
[2] abbreviates: source organism: Dengue virus 2 Jamaica/1409/1983.
Where [3] appears, read: source organism: SARS coronavirus Tor2.

The term pKd denotes the Kd on a negative log10 scale, so that one unit is a factor of ten.

pKd: −log10 of the molar value.

Regarding HQYPANLFY, in the experiment with HLA-A*30:01 (setting [1]), the pKd was 7.29.
On to STFNMWREI, for which the pKd with HLA-A*02:02 (setting [1]) is 5.24; with HLA-A*02:03 (setting [1]) it was 6.15; with HLA-A*02:06 (setting [1]), 7.02.
On to YVLFVKKML, for which the pKd in the experiment with HLA-A*02:02 (setting [1]) is at most 4.51; with HLA-A*02:03 (setting [1]), 4.92; with HLA-A*02:06 (setting [1]), 5.60.
As for AGGLLLAAY, in the experiment with HLA-A*30:02 (source organism: Dengue virus 4 Philippines/H241/1956), the pKd was 7.22.
On to EISNMLSII, for which the pKd with HLA-A*26:01 (source organism: Dengue virus 3 Martinique/1243/1999) is 5.47.
For the sequence FTFGDTALYV, the negative-log Kd (pKd) is 7.61 in the experiment with HLA-A*02:02 (setting [1]), 7.32 with HLA-A*02:03 (setting [1]) and 8.45 with HLA-A*02:06 (setting [1]).
The matching figures for IVQLPKRGV: 4.92, 5.06 and 5.51.
On to NIGCAVNTPV, for which the figures for the pKd with HLA-A*02:02 (setting [1]), in the experiment with HLA-A*02:03 (setting [1]) and in the experiment with HLA-A*02:06 (setting [1]) were 6.90, 7.52 and 6.75, respectively.
Taken in the same sequence, the figures for GLLDSIKMI were 7.10, 7.85 and 7.36.
In the case of KIIAVFDSKL, the pKd in the experiment with HLA-A*02:02 (setting [1]) is 7.61; in the experiment with HLA-A*02:03 (setting [1]), 7.25; with HLA-A*02:06 (setting [1]) it was 7.23.
The matching figures for KLPTWLGAA: 6.30, 8.10 and 8.03.
In the case of TSRNNHLPA, the pKd in the experiment with HLA-A*30:01 (source organism: Vaccinia virus Copenhagen) was 7.82.
With CSRCLSLFY, in the experiment with HLA-A*30:01 (setting [1]), the pKd was 7.66.
For TTMRGAKRM, in the experiment with HLA-A*26:01 (setting [2]), the pKd was 5.09.
Regarding WIKDIMTST, the pKd was 6.71 with HLA-A*02:02 (setting [1]), 7.94 with HLA-A*02:03 (setting [1]) and 6.87 in the experiment with HLA-A*02:06 (setting [1]).
With FLRPVLKAM, the values for the pKd in the experiment with HLA-A*02:02 (setting [1]), with HLA-A*02:03 (setting [1]) and with HLA-A*02:06 (setting [1]) were 5.86, 8.01 and 5.26, respectively.
For the sequence GVMYAFTTPL, the pKd was 7.47 in the experiment with HLA-A*02:02 (setting [1]), 7.35 with HLA-A*02:03 (setting [1]) and 7.35 with HLA-A*02:06 (setting [1]).
Turning to VLCPYMPKV, in the experiment with HLA-A*69:01, the pKd was 5.79.
Regarding TSEIQLTDY, the negative-log Kd (pKd) with HLA-A*01:01 was 6.49.
As for ILATLNTLIT, the results for the pKd in the experiment with HLA-A*02:02 (setting [1]), with HLA-A*02:03 (setting [1]) and with HLA-A*02:06 (setting [1]) were 8.16, 7.91 and 6.20, respectively.
Taken in the same sequence, the figures for STYPGNTFV were 7.97, 9.72 and 9.33.
As to YVIRHVDGKI, the figures for the pKd with HLA-A*02:02 (setting [1]), with HLA-A*02:03 (setting [1]) and in the experiment with HLA-A*02:06 (setting [1]) were 6.21, 6.94 and 6.28, respectively.
Consider FMFGPTIYY, for which the negative logarithm of the Kd (pKd) with HLA-A*03:01 was 7.37.
With QLMCQPILL, the pKd was 8.52 in the experiment with HLA-A*02:02 (setting [3]), 7.92 with HLA-A*02:03 (setting [3]) and 7.11 in the experiment with HLA-A*02:06 (setting [3]).
For AGPVSQHNY, the pKd with HLA-A*30:02 (setting [2]) is 7.63.
As for TIFDIVSKCI, the pKd with HLA-A*02:02 (setting [1]) was 6.70; with HLA-A*02:03 (setting [1]), 7.03; in the experiment with HLA-A*02:06 (setting [1]), 6.15.
With RAKRKPAMST, the pKd with HLA-A*02:02 (setting [1]) was 6.01; with HLA-A*02:03 (setting [1]), 5.86; in the experiment with HLA-A*02:06 (setting [1]), 5.81.
On to AWNSLEVEDY, for which the pKd in the experiment with HLA-A*30:02 (setting [2]) is 6.21.
Turning to EISSNDNAKI, the values for the pKd with HLA-A*02:02 (setting [1]), in the experiment with HLA-A*02:03 (setting [1]) and with HLA-A*02:06 (setting [1]) were 4.95, 6.71 and 6.79, respectively.
Taken in the same sequence, the figures for SLVKESMASL were 6.00, 8.11 and 5.84.
TISGNIYSAL: the values for the pKd in the experiment with HLA-A*02:02 (setting [1]), with HLA-A*02:03 (setting [1]) and with HLA-A*02:06 (setting [1]) were 8.03, 7.05 and 5.57, respectively.
For the sequence ITFLRPVLKA, the pKd in the experiment with HLA-A*02:02 (setting [1]) was 5.50; in the experiment with HLA-A*02:03 (setting [1]), 6.14; in the experiment with HLA-A*02:06 (setting [1]), 4.74.
As to MLLTFLTSL, the pKd is 8.21 with HLA-A*02:02 (setting [3]), 8.32 in the experiment with HLA-A*02:03 (setting [3]) and 8.44 in the experiment with HLA-A*02:06 (setting [3]).
Taken in the same sequence, the figures for IAMWLLLLSI were 7.07, 5.72 and 6.30.
Take YLSSVLLAL: the values for the pKd with HLA-A*02:02 (setting [3]), with HLA-A*02:03 (setting [3]) and in the experiment with HLA-A*02:06 (setting [3]) were 9.84, 9.51 and 8.09, respectively.
